# Several values for one entry are separate records, joined by “and”; a condition that tells them apart may be missing. Equal entries are not always repeated.
# Assays:
# [1] = target: full-length human vinculin (HV) (human) (UniProt P18206); test: ELISA
# [2] = target: human vinculin D1 subdomain (HV 1-258) (human) (UniProt P18206); test: native gel or EMSA
# [3] = target: cysteine-clamped vinculin D1D2 Q68C A396C (human) (UniProt P18206); test: native gel or EMSA
# [4] = target: human vinculin D1 and D2 domains (D1D2) (human) (UniProt P18206); test: native gel or EMSA
# [5] = target: human vinculin D1 and D2 domains (D1D2) (human) (UniProt P18206); test: SEC-MALS
# [6] = target: human vinculin D1 subdomain (HV 1-258) (human) (UniProt P18206); test: SEC-MALS
# [7] = target: human vinculin HV 1-834 containing the D1-D4 domains (human) (UniProt P18206); test: SEC-MALS
# [8] = target: the molecule itself; test: SEC-MALS
# Sequence of IpaA derivative containing VBS1-3 (A483) (P18010 483-633 limits assumed): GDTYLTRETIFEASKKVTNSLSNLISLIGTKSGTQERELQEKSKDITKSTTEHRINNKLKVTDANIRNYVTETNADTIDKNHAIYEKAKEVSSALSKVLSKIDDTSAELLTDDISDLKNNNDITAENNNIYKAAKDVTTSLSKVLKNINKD
# Sequence of IpaA derivative containing VBS1-2 (A524) (P18010 524-633 limits assumed): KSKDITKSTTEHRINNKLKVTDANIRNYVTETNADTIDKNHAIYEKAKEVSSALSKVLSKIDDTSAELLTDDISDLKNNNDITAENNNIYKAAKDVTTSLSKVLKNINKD
molecule,measurement,setting,value
IpaA derivative containing VBS1-2 (A524) (from UniProt P18010 524-633) (domain or fragment),EC50,[1],3.7 nM
same,stoichiometry N,[2],1
same,stoichiometry N,[3],1
same,stoichiometry N,[4],1
same,stoichiometry N (D1D2 per A524),[5],1 and 2
IpaA derivative containing VBS1-3 (A483) (from UniProt P18010 483-633) (domain or fragment),EC50,[1],6.1 nM
same,stoichiometry N,[2],1
same,stoichiometry N,[3],1
same,stoichiometry N,[4],1
same,stoichiometry N (A483 per D1D2),[4],1 and 2
same,stoichiometry N,[6],3 D1 per A483
same,stoichiometry N (D1D4 per A483),[7],1 and 2
same,stoichiometry N (D1D2 per A483),[5],2
human vinculin D1 and D2 domains (D1D2) (from UniProt P18206-2 1-492) (domain or fragment),stoichiometry N,[5],3
"human vinculin HV 1-834 containing the D1-D4 domains (domain or fragment, UniProt P18206-2 1-834, looked up) MPVFHTRTIESILEPVAQQISHLVIMHEEGEVDGKAIPDLTAPVAAVQAAVSNLVRVGKETVQTTEDQILKRDMPPAFIKVENACTKLVQAAQMLQSDPYSVPARDYLIDGSRGILSGTSDLLLTFDEAEVRKIIRVCKGILEYLTVAEVVETMEDLVTYTKNLGPGMTKMAKMIDERQQELTHQEHRVMLVNSMNTVKELLPVLISAMKIFVTTKNSKNQGIEEALKNRNFTVEKMSAEINEIIRVLQLTSWDEDAWASKDTEAMKRALASIDSKLNQAKGWLRDPSASPGDAGEQAIRQILDEAGKVGELCAGKERREILGTCKMLGQMTDQVADLRARGQGSSPVAMQKAQQVSQGLDVLTAKVENAARKLEAMTNSKQSIAKKIDAAQNWLADPNGGPEGEEQIRGALAEARKIAELCDDPKERDDILRSLGEISALTSKLADLRRQGKGDSPEARALAKQVATALQNLQTKTNRAVANSRPAKAAVHLEGKIEQAQRWIDNPTVDDRGVGQAAIRGLVAEGHRLANVMMGPYRQDLLAKCDRVDQLTAQLADLAARGEGESPQARALASQLQDSLKDLKARMQEAMTQEVSDVFSDTTTPIKLLAVAATAPPDAPNREEVFDERAANFENHSGKLGATAEKAAAVGTANKSTVEGIQASVKTARELTPQVVSAARILLRNPGNQAAYEHFETMKNQWIDNVEKMTGLVDEAIDTKSLLDASEEAIKKDLDKCKVAMANIQPQMLVAGATSIARRANRILLVAKREVENSEDPKFREAVKAASDELSKTISPMVMDAKAVAGNISDPGLQKSFLDSGYRILGAVAKVREA",stoichiometry N,[8],3

# Source: paper doi:10.1101/773283 (bioRxiv, 2020)
